Reference: article PMC7293020

B1: Escherichia coli exonuclease I (ExoI) (enzyme)
chain: MMNDGKQQSTFLFHDYETFGTHPALDRPAQFAAIRTDSEFNVIGEPEVFYCKPADDYLPQPGAVLITGITPQEARAKGENEAAFAARIHSLFTVPKTCILGYNNVRFDDEVTRNIFYRNFYDPYAWSWQHDNSRWDLLDVMRACYALRPEGINWPENDDGLPSFRLEHLTKANGIEHSNAHDAMADVYATIAMAKLVKTRQPRLFDYLFTHRNKHKLMALIDVPQMKPLVHVSGMFGAWRGNTSWVAPLAWHPENRNAVIMVDLAGDISPLLELDSDTLRERLYTAKTDLGDNAAVPVKLVHINKCPVLAQANTLRPEDADRLGINRQHCLDNLKILRENPQVREKVVAIFAEAEPFTPSDNVDAQLYNGFFSDADRAAMKIVLETEPRNLPALDITFVDKRIEKLLFNYRARNFPGTLDYAEQQRWLEHRRQVFTPEFLQGYADELQMLVQQYADDKEKVALLKALWQYAEEIV
B2: Cy5-dT35 (ssDNA)
DNA: TTTTTTTTTTTTTTTTTTTTTTTTTTTTTTTTTTT

Experiments:
[1] = target: EcSSB and the SSB-IDL fusions; experiment: ITC
[2] = target: EcSSB (Escherichia coli, UniProt P0AGE0 1-178); experiment: MST
Chain of EcSSB (P0AGE0 whole entry): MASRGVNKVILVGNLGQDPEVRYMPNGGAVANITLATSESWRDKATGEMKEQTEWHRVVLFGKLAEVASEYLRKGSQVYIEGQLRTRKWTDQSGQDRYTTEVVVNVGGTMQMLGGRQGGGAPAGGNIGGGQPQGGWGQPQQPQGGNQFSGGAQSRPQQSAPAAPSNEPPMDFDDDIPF

Row | Binder | Kd [1] [µM] | Kd [2] [µM]
1 | B1 | 4.46 to 5.78 | –
2 | B2 | – | 0.00123 ± 0.00029
